# Data from the nanobody polyreactivity screen of Harvey et al. (2022).
# Assay: yeast display, Sf9 membrane polyspecificity reagent, FACS + sequencing; frameworks hold sequencing errors
# How it was run: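 Using colony PCR, genes from sorted yeast display clones were amplified, then sequenced on MiSeq at 2 × 250 and filtered by CDR length. The clones had been stained with 10% biotinylated, detergent-solubilized Sf9 membrane reagent for 1 hour at 4 °C and sorted by FACS into low and high (top ~1%) gates on anti-HA and streptavidin fluorescence. Polyreactivity labels come from the gate of origin.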
row,Sequence,polyreactivity (PSR sort gate)
1,QVQLGESGGGLLQAGGSLRLSCAASGRTISKNGMGWYRQAPGKERELVAAISGSGGTTYYADSVKGRFTISRDNAKNTVYLQMNSLKPEDTAVYYSADRYTVSRSGYWGLGTQVTVSS,high polyreactivity
2,QVQLVESGGGLVQAGGSLRLSCAASGRTIRLYAMGWYRQAPGQERELVAAITRGGRTNYADSVKGRFTISRDNAKNTVYLQMNSLKPEDTAVYYCAARYVERHTDYYYWGQGTQVTVSS,low polyreactivity
3,QVQLVESGGGLVQAGGSLRLSCAASGFNFASNAMGWYRQAPGKERELVAAITKSGGRTYYADSVKGRFTISRDNAMNTVYLQMNSLKPEDTAVYYCAAKVRVVHRPYDHWGQGTQVTVSS,high polyreactivity
4,QLQLVESGGGLVQAGGSLRLSCAPSGRTFVGNAMGWYRQAPGKERELVAAITLSDGSTYYADSVKGRFTISRDNAKNTVYLQMNSLKPEDTAVYYCATQPLYWYDVVVNIRGPSGYWGQGTQVTVSS,low polyreactivity
5,QVQLVESGGGLVQAGGSLRLSCAASGRIFFRYVMGWYRQAPGKERELVAAISSGGRTYYADSVKGRFTISRDNAKNTVYLQMNSLKPEDTAVYYCAADLLLYSSQDNDYWGQGTQVTVSS,low polyreactivity
6,QVQLVESGGGLVQAGGSLRLSCAASGSIFYRYSMGWYRQAPGKEREFVAAITWSGGSTYYADSVKGRFTISRDNAKNTVYLQMNSLKPEDTAVYYCAKDSGSYRVGIYEPFPYGYWGQGTQVTVSS,low polyreactivity
7,QVQLVESGGGLVQAGGSLRLSCAASGRTFYAYAMGWYRQAPGKERELVSAISWRGGDTYYADSVKGRFTISRDYAKNTVYLQMHSLIPEDTAFYYCAADFTYTWDAAQGYDYWGQGPQVTVSS,low polyreactivity
8,QVQREESGGGLVQAGGSLRLSCAASGSILYYNAMGWYRQAPGKEREFVAGISSSGGSTYYADSVKGRFTISRDNAKNTVYLQMKSLQPEENAVYYCAKRTYWRRGWCFDFWGQGTQVTVSS,high polyreactivity
9,QVQLVESGGGLVQAGGSLRLSCAASGYTRFYAMGWYRQAPGKERELVAAISSSGGTTYYADSVKGRFTISRDNAKNTVYLQMNSLKPEDTAVYYCAKYVSYSRTLYDYWGQGTQVTVSS,high polyreactivity
10,QVQLVESGGGLVQAGGSLRLNCAASGLIFSNNAMGWYRQAHRKERDLVAAITSSGSRTYYADSVKGRFTISRDNAQITVYLQMNSLKPEDTAVYYCAAYEVPYQRRYGYWGQGTQVTVSS,high polyreactivity
11,QVQLVESGGGLGQAGGSLRLSCAASGSTFGRYVMGWYRQAPGKERELVAAISKNSGSTYYAYSVKGRFTISRDNAKNTVYLQMNSLKPEDTAVYYCAADWRSKGYDSLGQGTQVTVSS,high polyreactivity
12,QVQLVESGGGLVQAGGSLRLSCAASGSTFYGYAMGGNRQAPGKERELVAAMTWGGASTYYADSVKGRFTIARDNAKNTVYLQMNSLKPEDTAVYYCATVGWGYQPYPFGMDYWGQGTQVTVSS,low polyreactivity
13,QVQLVESGGGLVQAGGSLRLSCAASGSTLATYTMGWYRQAPGKERELVAAISFGGSTYYADSVKGRFTISRDNAKNTVYLQMNSLKPEDTAVYYCAVYGDSYWGASYYSDGYWGQGTQVTVSS,low polyreactivity
14,QVQPQESGGGLVQAGGSLRLSCAASGTIFAFQTMGWYRQAPGKERELVASITYGSSTNYADSVKGRFTISRDNAKNTVYLQMNSLKPEDTAVYYCAKSAQRYSYRYYYWGQGTQVTVSS,high polyreactivity
15,QVQLVESGGGLVQAGGSLRLSCAASGRIYPYYAMGWYRQAPGKERELVAAITTRGGSTYYADSVKGRFTISRDNAKNTVYLQMNSLKPEDTAVYYCAAVTFGRMEYWGQGTQVTVSS,low polyreactivity
16,QVQLVESGGGLVQAGGSLRLSCAASGSIFSYNVMGGYRQAPGKERELVAVITGSGGSTYYADSVKGRFTISRDNAKNTVYLQMNSLKPEDTAVYYCNKDRGTIPPSGNDYWGQGTLVTVSS,low polyreactivity
17,QVQHVETGGGLVQAGGSLRLSCAASGSTFVLYAKGWYRQAPGKERELVAAITWSGDDTYYADSVKGRFTISRDNAKNTVYLQMISLKPEDTAVYYCAAAYAYWGQGTQVTVSS,low polyreactivity
18,QVQRVESGAGLVQAGGILRLSCPASGSIFTNNPMGWSRQAPGKARELVAGISFRGSSTYADSVKGRFTISRDNAKNSVYLQMNSLNPVDPAVYYCAGDGLYWWMYYWGQGTQVTVSS,low polyreactivity
19,QVQLVESGGGLVQAGGSLRLSCAASGSTFLRYAMGWYRQAPGKERELVAAISSGTSTNYADSVKGRFTISRDNAKNTVYLQMNSLKPEDTAVYYCAAVYAWLFWYDSWGQGTQVTVSS,low polyreactivity
20,QVQLVESGGGLVQAGGSLRLSCAASGTIFGSNAMGWYRQAPGKERELVAAISWRGGRTYYADSVKGRFSISRDYAKNTVYLQMYSLKPVETAVYYCAKRWRRRFVDVWSLYDYWGQGTQVTVSS,low polyreactivity
21,QVQLVESGGGFDQAGGSLRLSCAASGSIFSGYAMGWYRQAPGKETELVAAINWSGGRTYYADSVKGRFTISRDNEKNTVYLQMKSLKPEDTAVYYCAAAGARSIYRMDYWGQGTQVTVSS,high polyreactivity
22,QVQLVESGGGLVQAGGSLRLSCAASGRIFHNYAMGWYRQAPGKERELVAGISSRGGSTYYADSVKGRFTISRDNAKNTVYLQMNSLKPEDTAVYYCAKDKSPYGYATNQYRKYYYWGQGTQVTVSS,low polyreactivity

row,Sequence,polyreactivity (PSR sort gate)
1,QVQLVETGGGLVQAGGSLRLSCAASGITFFGYDIGWYRQAPGKERELVAAINSRGGNTYYADSVKGRFTISRDNAKYTVYLQMNSLKPEDTAVYYCAARRYYNRAYGYWGQGTQVTVSS,high polyreactivity
2,QVQLVESGGGLVQAGGILRLSCAASGFIFYFYAMGWYRQAPGKERELVAAISWSGGSTYYADSVKGRFTISRDNAKINVYLQMNSLKAEDTAVYFCAADLYHKYDYWGQGTQVTVSS,low polyreactivity
3,QVQLEESGGGLVQAGGSLRLSCAASGSTFKLYTMGWYRQAPGKEREFVATITSGGRTNYADSVKGRFTISRDNAKNTVYLQMNSLKPEDTAVYYCAATWLRVKYRFKGYDYWGQGTQVTVSS,high polyreactivity
4,QVQLVESGGGLVQAGGSLRLSCAASGRTLYQYAMGWYRQAPGKERELVAAITWNGGSTYYADSVKGRFTISRDNAKNTVYLQMNSLKPEDTAVYYCAADTVRPWYAYKAHDYWGQGTQVTVSS,low polyreactivity
5,QVQLVESGGGLVQAGGRLRFSCAASGRIFYSYTMGWYRQAPGKERELVASISRSSGDTYYADSVKGRFTISRDNAKNPVYLQMNSLKPEDTAVYYWAARIKTYSKRYYWGQGTQVTVSS,high polyreactivity
6,QVQLVESGGGLVQAGGSLRLRCAASGSIFESNAMGWYRQAPGKETEFVAAIDQNDGSTYYADSVKGRFTISRDNAKNTVYLQMNSLKPDDTAVYYCAARCYVYRLTWGDYWGQGTQVTVSS,low polyreactivity
7,QVQLVESGGGLVQAGGSLRLSCAASGLIFIAYAMGWYRQAPGKERELVAAISSSGGSTYYADSVKGPFTISRDNAKNTFYLQMNSLKPEDTGVYYCAADRFDWGTGRYGYWVQGTQVTVSS,low polyreactivity
8,QVQIVESGGGLVQAGGSLRLSCAASGSTYDTYAMVWYRQAPGKERELVAGITRRGGRTYYADSVKGRFTISRDNAKNTVYLQMISLKPEDTAVYYCAARTYGYYLYDYWGQGSQVTVSS,high polyreactivity
9,QVQLVESGGGLVQAGGSLRLSCAASGFTFYPYARGWYRQAPGKERELVAAISNGDSTHYADSVKGRFTISRDNAKNTVYLQMNSLKPQDTAVYYCNAYTRYPFYFVTSKYDYWGQGNQVTVSS,low polyreactivity
10,QVQLVESGGGLVQAGGSLRLSCAASGSIFGLYAMGWYRQAPGKERELVAAISRSGGSTYYADSVKGRFTISRDNAKNTVYLQMYSLKPEDSAVYDCNALRWSQYTYSSRLGHFDSWGQGTQVTVSS,high polyreactivity
11,QVQLVESGGGLVQAGGSLRLSCAASGNTFDEYAMGWYRQAPGKEREFVAAIRNTYYADSVKGRFTISRDNAKNTVYLQMNSLKPEDTAVYYCAKPSQLHPYEYWGQGTQVTVSS,low polyreactivity
12,QVQLVESGGGLVQAGGSLRLSCAASGRIFFPNPMGWYRQAPGKDREFVAGITVSGGSTYYADSVKGRFTISRDNAKNTVYFQMNSLKPEDTAVYYCGAYWAQGTRYEYRLNYWGQGTLVTVSS,low polyreactivity
13,QDQLVESGGVLVQAGGSLRLSCAASGSIFFRNAMGWYRQAPGKERELVAGIRWSGGSTYYADSVKARFTISRDNAKNTVYLQMNSLKPEDSAVYYCAASRYRPARVQYSYDYWGQGTQVTVSS,high polyreactivity
14,QVQLVESGGGLVQAGGSLRLSSAASGSIFGYNAIGWYRQAPGKERELVAAISYSGGRTYYADSVKGRFTISRDNAKNTVYLQMNCLKAEDTAVYYCAKVLQYRTFYTGYDYWGQGTQVTVSS,high polyreactivity
15,QVQLVESGGGLVQAGGSHRLSCAASGRTFCKYAMGWYRQAPGKERELVAAITAGGGTKYADSVKGRFTISRDNAKNTVYLQMNSLKPEDTAVYYCAAASGSRRHGYWGQGTQVTVSS,high polyreactivity
16,QVQLVESGGGLVQAGGSLRLSCAASGRSFWRNAMGWYRQAPGRERELVAAMSRGGSTNYADSVKGRFTMSRDNAKKTVYLPMNSLKPEDTAVYYCAARYYYRYNYWRQGTQVTVSS,high polyreactivity
17,QVQLVESGGGLVQAGGRLRLSCAASGSIFNSYAMGWYRQAPGTEREFVASIPKSGGTTYYADSVKGRFTISRDNAKNTVYLQMNSLKPEDTAVYYCAADWYRSSWTYNYWGQGTQVTLSS,low polyreactivity
18,QVQLVESGGGLVQAGGSLRLSCAASGFTFRRYVMGWYRQAPGKERELVAAISQSGGSTYYADSVKGRFTISRDNAKNTVYLQMYSLKPEDTAVYYCAAVTSRYVLSTFYYWGQGTQVTVSS,high polyreactivity
19,QVQLVESGGGLVQAGGSLRLSCAASGSTLYDYTMGWYRQAPGKERELVAAIRVSGARTFYADSVKGRFTISRDNAKNTVYLQMNSLKPEDTAVYYCAARWYIANPLSPSDYWGQGTQVTVSS,low polyreactivity
20,QVQLVESGGGLVQAGGSLRLSCAASGIIFVYYTLGWYRQAPGKERELVAAITSGGSTYYADSVKGRFTISRDNAKNTVYLQMNSLKPEDTAVYYCAARTYRQPYYILDYYWGQGTQVTVSS,high polyreactivity
21,QVQLVESGGGLVQAGGSLRLSCAASGFTLFGYAMGWYRQAPGKERELVAAISKDGGSTYYADSVKGRFTISRDNAKNTVYLQMNSLKPEDTAVYSCAARVKRPQTGYDRRYGYWGQGTQVTVSS,high polyreactivity
